Measured values: US20020095023A1 (published 2002)
Ends that are not written are not given here.

B1: phage ph4 displaying peptide p4 (peptide)
peptide: WEFPGWM
modifications: also: displayed on phage coat protein
notes: Whole phage particle in the assay; not shown: phage coat protein of the heptamer library (New England Biolabs); linker and coat protein not described
B2: phage ph2 displaying peptide p2 (peptide)
peptide: WYVYPSM
modifications: also: displayed on phage coat protein
notes: Whole phage particle in the assay; also called ph2 clone; not shown: phage coat protein of the heptamer library (New England Biolabs); linker and coat protein not described
B3: Recombinant rat HRF (IgE-dependent histamine-releasing factor) (ligand, UniProt P63029 1-172, looked up)
chain: MIIYRDLISHDELFSDIYKIREIADGLCLEVEGKMVSRTEGAIDDSLIGGNASAEGPEGEGTESTVVTGVDIVMNHHLQETSFTKEAYKKYIKDYMKSLKGKLEEQKPERVKPFMTGAAEQIKHILANFNNYQFFIGENMNPDGMVALLDYREDGVTPFMIFFKDGLEMEKC
notes: Expressed in E. coli from pRSET-A and purified on a Ni column; also called recombinant HRF protein; translationally controlled tumor protein; not shown: N-terminal His-tag leader of the pRSET-A vector

Assays:
[1] = target: T1, BSA (bovine, UniProt P02769); assay: phage ELISA on coated wells, anti-M13-HRP
T1 construct: control coating of the ELISA wells; also called bovine serum albumin
T1 sequence (P02769 25-607 limits assumed): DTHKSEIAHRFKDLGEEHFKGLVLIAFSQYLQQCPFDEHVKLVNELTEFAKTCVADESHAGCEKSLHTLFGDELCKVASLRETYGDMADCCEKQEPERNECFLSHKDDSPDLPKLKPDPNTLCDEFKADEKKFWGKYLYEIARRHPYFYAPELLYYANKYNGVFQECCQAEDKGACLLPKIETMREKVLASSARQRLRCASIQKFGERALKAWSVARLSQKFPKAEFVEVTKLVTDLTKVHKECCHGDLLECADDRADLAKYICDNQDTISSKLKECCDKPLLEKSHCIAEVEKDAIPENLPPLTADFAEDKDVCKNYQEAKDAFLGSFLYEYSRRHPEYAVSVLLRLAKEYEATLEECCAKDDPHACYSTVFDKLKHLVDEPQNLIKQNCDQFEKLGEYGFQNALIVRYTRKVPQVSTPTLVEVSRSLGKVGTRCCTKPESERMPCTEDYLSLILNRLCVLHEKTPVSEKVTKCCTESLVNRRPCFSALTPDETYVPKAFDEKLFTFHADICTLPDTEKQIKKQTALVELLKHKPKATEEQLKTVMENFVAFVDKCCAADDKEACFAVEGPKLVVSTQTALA
Protocol: That is, the phage plaques were transferred to 1 ml of ER2537 culture solution cultivated in SB medium (OD₆₀₀=0.5˜1) and then, cultured in 37° C. incubator (rpm 250) for 5 hours. Each 100 μl of the culture solution was added to 900 μl of SB medium and cultured overnight. The culture solution was centrifuged twice at 14,000 rpm for 5 minutes per centrifugation and the obtained supernatant was used for ELISA.
To plastic wells, each of which was coated with HRF or BSA (control), 50 μl of a solution obtained by diluting each isolated phage solution with the equivalent amount of 6% BSA/PBS, and the resulting mixture was allowed to stand for 2 hours. After washing five times with PBST, 100 μl of HRP-conjugated anti-M13 antibodies (Pharmacia) diluted in 3% BSA/PBS with the ratio of 1:5000 were added thereto and the whole was allowed to stand for 1 hour. After washing six times with PBST and then, once with PBS, 100 μl of peroxydase substrate solution was added thereto. The chromogenicity was measured using ELISA reader at 405 nm. From FIG. 12, it can be seen that the phages ph1, ph2 and ph4, especially ph2 and ph4, specifically bind to HRF.

[2] = target: B3; assay: competition ELISA on HRF-coated wells, peptide added before phage ph2 (1/25 dilution), anti-M13-HRP
Protocol: (§1) Also, as a negative control, random peptide (ran, amino acid sequence: LMEGCRA) was synthesized. To the wells coated with HRF was added each 30 μl of the peptide solution serially diluted in 6% BSA/PBS from 1000 nM (1000, 100, 10, 1, 0.1, 0.01, 0.001 nM) and the solution was allowed to stand at room temperature for 30 minutes. The 1/25-fold diluted phage solution was added thereto and the whole solution was further allowed to stand for 2 hours. The solution was washed five times with PBST and then, each 100 μl of HRP-conjugated anti-M13 antibodies were added thereto and then, the resulting mixture was allowed to stand for 1 hour. The mixture was washed 6 times with PBST and once with PBS, and thereto was added each 100 μl of peroxydase substrate solution to examine the competition. It can be seen from the above figures that both of the synthetic peptides p2 and p4 bind to HRF competitively with phage clones ph2 and ph4.

[3] = target: B3; assay: competition ELISA on HRF-coated wells against phage ph2, anti-M13-HRP
Protocol: as §1
b) In order to test whether or not p1, p2 and p4 bind to the identical site on HRF, the wells were coated with HRF according to the substantially same procedure as in the above a). As shown FIG. 14c, p1, p2 and p4 bound to the identical site on HRF.

[4] = target: B3; assay: competition ELISA on HRF-coated wells, peptide added before phage ph4 (1/25 dilution), anti-M13-HRP
Protocol: as §1

[5] = target: T2, (Na,K)ATPase as flowed in the Biacore analysis; assay: Biacore (SPR); HRF immobilised on CM5 sensor chip, (Na,K)ATPase flowed
T2 construct: domain: large cytoplasmic loop; also called (Na,K)ATPase large cytoplasmic loop
Protocol: Recombinant rat HRF was immobilized on CM5 sensor chip at a concentration of […] in pH 4.0, 10 mM acetate and then, corrected by flowing HBS buffer (0.01 M Hepes, pH 7.4, 0.15 M NaCl, 3 mM EDTA, 0.005% surfactant P20). […] by flowing 50 mM NHS (N-hydroxysuccinimide) and 200 mM EDC(N-ethyl-N-(3-[…])carbodiimide). The binding affinity was measured by flowing (Na,K)ATPase.

Binder	binding result [1]	IC50 (read off the curve) [3] [nM]	other results
B1	no binding	–	–
B2	no binding	–	–
WYVYPSM [synthetic heptapeptide p2]	–	–	IC50 (read off the curve) [2]: ~40 nM
LVTYPLP [synthetic heptapeptide p1]	–	~20	–
WEFPGWM [synthetic heptapeptide p4]	–	~20	IC50 (read off the curve) [4]: ~10 nM
B3	–	–	Kd [5]: 850 nM
